Test system: Flag epitope tagged CTMPs (F.CTMPs; CTMP starting at the natural ATG of the cDNA)
Sequence (chain, as listed by the source): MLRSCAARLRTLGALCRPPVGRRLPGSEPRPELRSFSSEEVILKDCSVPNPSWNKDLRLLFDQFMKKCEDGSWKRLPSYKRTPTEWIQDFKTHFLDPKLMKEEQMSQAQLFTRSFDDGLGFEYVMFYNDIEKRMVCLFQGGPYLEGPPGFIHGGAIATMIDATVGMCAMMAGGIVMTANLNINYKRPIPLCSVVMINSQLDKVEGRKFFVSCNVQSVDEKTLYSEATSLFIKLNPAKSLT

## HA epitope-tagged PKB alpha (HA-PKBα, pCMV5-HA-PKBα)
  phosphorylation of PKB on Thr 308 and Ser 473, Western blot with phospho-specific antibodies: CTMP expression leads to a reduction of phosphorylation on both residues but most notably on the S473 site
